From patent US20230067770A1 (SHANGHAI HENLIUS BIOTECH, published 2023)

T1: Cyno CD137-his (cynomolgus monkey, UniProt A9YYE7 24-186)
T1 construct: Bought reagent; also called cynomolgus monkey CD137; cynomolgus CD137 (Sino Biological, 90847-K02H-100)
T1 sequence: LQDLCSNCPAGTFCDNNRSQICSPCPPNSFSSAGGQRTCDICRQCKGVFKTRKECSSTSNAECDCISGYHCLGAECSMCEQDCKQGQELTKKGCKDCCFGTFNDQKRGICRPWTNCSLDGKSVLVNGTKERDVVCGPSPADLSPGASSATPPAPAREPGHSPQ

T2: mouse CD137 (mouse, UniProt P20334 24-187, limits assumed)
T2 sequence (looked up): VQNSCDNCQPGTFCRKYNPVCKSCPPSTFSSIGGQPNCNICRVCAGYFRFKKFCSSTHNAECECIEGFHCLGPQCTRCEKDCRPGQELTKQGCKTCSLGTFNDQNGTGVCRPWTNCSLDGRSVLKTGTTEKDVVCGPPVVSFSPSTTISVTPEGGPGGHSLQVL


Assays:
Human CD137-his [1] = biological target: T3, Human CD137-his (human, UniProt Q07011 24-186); assay: BLI (Octet Red 96), antibody captured on AHC sensor, 1:1 Langmuir fit
T3 construct: Bought reagent; also called Human CD137-His (Sino Biological, 10041-H08H)
Description: (§1) Biolayer interferometry was used to measure the association and dissociation constants for the binding kinetics of the anti-CD137 antibodies. The binding kinetics was measured on a FortieBio Octet Red 96 at 30° C. and analyzed with the FortieBio Data Analysis 9.0 software. Anti-human-IgG Fc (AHC) sensor was used to capture the anti-CD137 antibodies or control antibodies. A kinetic buffer only well was set as a reference well for subtraction during data processing. Data were fitted with a 1:1 Langmuir model for association and dissociation using Rmax linked global fitting for each antibody-antigen binding. Human CD137-his is a recombinant CD137 antigen with a poly histidine tag fused to C-terminus of human CD137 antigen (Sino Biological, 10041-H08H). Cyno CD137-his is a recombinant CD137 antigen with a poly histidine tag fused to C-terminus of cynomolgus CD137 antigen (Sino Biological, 90847-K02H-100).

Cyno CD137-his = biological target: T1, Cyno CD137-his; assay: as above
Description: as §1

Human CD137-his [2] = biological target: T3, Human CD137-his; assay: BLI (Octet), second round, antibody captured on AHC sensor
Description: as §1

mouse CD137 = biological target: T2, mouse CD137; assay: biolayer interferometry (Octet Red 96), antibody captured on AHC sensor
Human CD137-his [3] = biological target: T3, Human CD137-his; assay: BLI (Octet Red 96), antibody captured on AHC sensor, 1:1 Langmuir fit; remark: listed apart in the source
Description: (§2) Biolayer interferometry was used to measure the association and dissociation constants for the binding kinetics of bispecific antibodies. The binding kinetics was measured on a FortieBio Octet Red 96 at 30° C. and analyzed with the FortieBio Data Analysis 9.0 software. Anti-human-IgG Fc (AHC) sensor was used to capture the bispecific or control antibodies. Double binding was performed by association with the first antigen, then dissociation, and association with the second antigen, then dissociation. A regeneration cycle with 20 mM glycine, pH 1.5 was used between different antibody cycles. The 1×kinetic buffer (FortieBio) was used for baseline. Human CD137-His (Sino Biologicals Cat: 10041-H08H) and rhesus CD137-His protein (Sino Biologicals Cat: 90847-K08H) were diluted into kinetic buffer in a series of concentrations. A kinetic buffer only well was set as a reference well for subtraction during data processing. Data were fitted with a 1:1 Langmuir model for association and dissociation using Rmax linked global fitting for each antibody-antigen binding. Human CD137-his is a recombinant CD137 protein with a poly histidine tag fused to C-terminus of human CD137 antigen (Sino Biological, 10041-H08H). Human EGFR-his is a recombinant EGFR protein with a poly histidine tag fused to C-terminus of human EGFR antigen (Acro Biosystem, EGR-H5222-100 ug).

EGFR on SK-Hep1 cells = biological target: T4, EGFR on SK-Hep1 cells (UniProt P00533 25-1210, limits assumed); assay: flow cytometry, whole cell binding to SKHep1 EGFR high cells, Alexa Fluor 488 anti-human IgG F(ab')2 secondary, median fluorescence intensity
T4 construct: whole, on cells; also called EGFR positive SK-Hep1 tumor cells; EGFR high SK-Hep1 cells
Description: (§3) The binding affinity of bispecific antibodies to cell surface receptors was also quantified in whole cell binding assay. […] Afterwards, cells were washed with PBS twice and then incubated with secondary Alexa Fluor® 488 AffiniPure Goat Anti-Human IgG, F(ab′)2 fragment specific antibody (Jackson ImmunoResearch, Code 109-545-006) for 30 min at 4° C. in FACS buffer. The cells were then washed with PBS twice and resuspended in FACS buffer. […] The median fluorescence intensity was fitted using a non-linear model with GraphPad 8.0.
(§4) The anti-CD137×EGFR bispecific antibodies included variants with IgG1 wild type Fc, IgG1 Fc with LALA mutation and different linkers.

[4] = biological target: T5, CD137 on CD137 stably transfected 293T cells (UniProt Q07011 24-255, limits assumed); assay: flow cytometry, whole cell binding to CD137/NFkB 293T cells, Alexa Fluor 488 anti-human IgG F(ab')2 secondary, median fluorescence intensity
T5 construct: whole, on cells; also called CD137/NF-κB reporter cells
Description: as §3, §4

Human EGFR-his = biological target: T6, Human EGFR-his (human, UniProt P00533 25-645); assay: BLI (Octet Red 96), antibody captured on AHC sensor, 1:1 Langmuir fit
T6 construct: Bought reagent; also called EGFR-His (Acro Biosystem, EGR-H5222-100 ug)
Description: as §2

T5 sequence (Q07011 24-255 limits assumed): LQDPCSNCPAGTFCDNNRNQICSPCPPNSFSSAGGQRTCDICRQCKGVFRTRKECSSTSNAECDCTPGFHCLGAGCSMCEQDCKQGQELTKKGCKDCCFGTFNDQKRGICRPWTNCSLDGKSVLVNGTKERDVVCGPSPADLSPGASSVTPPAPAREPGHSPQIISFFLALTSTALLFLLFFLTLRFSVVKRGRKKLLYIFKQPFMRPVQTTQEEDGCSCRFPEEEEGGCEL

Row | Binder | Kd (Human CD137-his [3]) [nM] | koff (Human CD137-his [3]) [s⁻¹] | kon (Human CD137-his [3]) [M⁻¹ s⁻¹] | EC50 (read off the curve) (EGFR on SK-Hep1 cells) [nM] | EC50 (read off the curve) [4] [nM] | further results
1 | aCD137-scFv-αEGFR-IgG1-Linker7 (bispecific antibody, also called Anti-EGFR HC-anti-CD137 scFv-IgG1-Linker 7 (HCC)) heavy: not shown light: EIVLTQSPATLSLSPGERATLSCRASQSIGTNIHWYQQKPGQAPRLLIKYASESISGIPARFSGSGSGTDFTLTISSLEPEDFAVYYCQQNNNWPTSFGGGTKVEIKRTVAAPSVFIFPPSDEQLKSGTASVVCLLNNFYPREAKVQWKVDNALQSGNSQESVTEQDSKDSTYSLSSTLTLSKADYEKHKVYACEVTHQGLSSPVTKSFNRGEC | – | – | – | ~0.3 | ~10 | –
2 | Anti-CD137 scFv x anti-EGFR IgG1 HCC (bispecific antibody, The tie rests on the label only; also called 2-9scFv-αEGFR2-HC-C; anti-CD137×EGFR bispecific antibody) heavy: not shown light: EIVLTQSPATLSLSPGERATLSCRASQSIGTNIHWYQQKPGQAPRLLIKYASESISGIPARFSGSGSGTDFTLTISSLEPEDFAVYYCQQNNNWPTSFGGGTKVEIKRTVAAPSVFIFPPSDEQLKSGTASVVCLLNNFYPREAKVQWKVDNALQSGNSQESVTEQDSKDSTYSLSSTLTLSKADYEKHKVYACEVTHQGLSSPVTKSFNRGEC | 6.25 | 0.000116 | 18600 | – | – | Kd (Human EGFR-his): 2.45 nM; koff (Human EGFR-his): 0.000991 s⁻¹; kon (Human EGFR-his): 404000 M⁻¹ s⁻¹
3 | aCD137-scFv-αEGFR-IgG1-Linker 10 (bispecific antibody) heavy: not shown light: EIVLTQSPATLSLSPGERATLSCRASQSIGTNIHWYQQKPGQAPRLLIKYASESISGIPARFSGSGSGTDFTLTISSLEPEDFAVYYCQQNNNWPTSFGGGTKVEIKRTVAAPSVFIFPPSDEQLKSGTASVVCLLNNFYPREAKVQWKVDNALQSGNSQESVTEQDSKDSTYSLSSTLTLSKADYEKHKVYACEVTHQGLSSPVTKSFNRGEC | – | – | – | ~0.3 | ~10 | –
4 | aCD137-scFv-αEGFR-IgG1-LALA-Linker 10 (bispecific antibody, The Linker 10 bispecific with the LALA mutation in the IgG1 Fc; also called Anti-EGFR HC-anti-CD137 scFv-IgG1 LALA-Linker 10 (HCC)) heavy: not shown light: EIVLTQSPATLSLSPGERATLSCRASQSIGTNIHWYQQKPGQAPRLLIKYASESISGIPARFSGSGSGTDFTLTISSLEPEDFAVYYCQQNNNWPTSFGGGTKVEIKRTVAAPSVFIFPPSDEQLKSGTASVVCLLNNFYPREAKVQWKVDNALQSGNSQESVTEQDSKDSTYSLSSTLTLSKADYEKHKVYACEVTHQGLSSPVTKSFNRGEC | – | – | – | ~0.2 | ~10 | –

The next lines start with results.

Row | Kd (Human CD137-his [3]) [nM] | koff (Human CD137-his [3]) [s⁻¹] | kon (Human CD137-his [3]) [M⁻¹ s⁻¹] | EC50 (read off the curve) (EGFR on SK-Hep1 cells) [nM] | EC50 (read off the curve) [4] [nM] | Binder | further results
5 | 4.52 | 0.000299 | 66200 | – | – | Anti-CD137 2-9 IgG2 (antibody, V domains shown, also called clone 2-9 IgG2 wt; 2-9 IgG2 wildtype) VH: QVQLVQSGAEVKKPGASVKASCKASGFNIQDTYIHWVRQAPGQGLEWMGRIDPANGNSEYAQKFQGRVTMTRDTSTSTVYMELSSLRSEDTAVYYCTTGNLHYALMDYWGQGTSVTVSS VL: DIQMTQSPSSVSASVGDRVTITCKASQPINTYLSWYQQKPGKAPKLLIYRVNRKVDGVPSRFSGSGSGTDFTLTISSLQPEDFATYYCLQYLDFPYTFGGGTKLEIKR | Kd (Human CD137-his [1]): 9.33 nM; koff (Human CD137-his [1]): 0.000869 s⁻¹; kon (Human CD137-his [1]): 93100 M⁻¹ s⁻¹; Kd (Cyno CD137-his): 2.76 nM; koff (Cyno CD137-his): 0.000712 s⁻¹; kon (Cyno CD137-his): 258000 M⁻¹ s⁻¹; Kd (Human CD137-his [2]): 5.5 nM; koff (Human CD137-his [2]): 0.000314 s⁻¹; kon (Human CD137-his [2]): 57100 M⁻¹ s⁻¹; binding result (mouse CD137): no binding
6 | – | – | – | ~0.2 | ~10 | aCD137scFv-αEGFR-IgG1-LALA (Linker 7) (bispecific antibody, The Linker 7 bispecific with the LALA mutation in the IgG1 Fc; also called Anti-EGFR-HC-anti-CD137 scFv-IgG1-LALA-Linker 7 (HCC); αCD137scFv-αEGFR-IgG1 LALA) heavy: not shown light: EIVLTQSPATLSLSPGERATLSCRASQSIGTNIHWYQQKPGQAPRLLIKYASESISGIPARFSGSGSGTDFTLTISSLEPEDFAVYYCQQNNNWPTSFGGGTKVEIKRTVAAPSVFIFPPSDEQLKSGTASVVCLLNNFYPREAKVQWKVDNALQSGNSQESVTEQDSKDSTYSLSSTLTLSKADYEKHKVYACEVTHQGLSSPVTKSFNRGEC | –
